# Data: patent US20130028925A1
# Target: HSV-2 glycoprotein E (gE2) as expressed by wild-type HSV-2 strain 2.12 (infected Cos cells; virion envelope) (Herpes Simplex Virus-2) (UniProt P89475)
# Assay: rosetting of IgG-coated sheep red blood cells on Cos cells infected with HSV-2 at MOI 2, 12 h; uninfected cells and gE2-deletion virus formed none
# Sequence of UniProt P89475 (P89475 21-545 limits assumed): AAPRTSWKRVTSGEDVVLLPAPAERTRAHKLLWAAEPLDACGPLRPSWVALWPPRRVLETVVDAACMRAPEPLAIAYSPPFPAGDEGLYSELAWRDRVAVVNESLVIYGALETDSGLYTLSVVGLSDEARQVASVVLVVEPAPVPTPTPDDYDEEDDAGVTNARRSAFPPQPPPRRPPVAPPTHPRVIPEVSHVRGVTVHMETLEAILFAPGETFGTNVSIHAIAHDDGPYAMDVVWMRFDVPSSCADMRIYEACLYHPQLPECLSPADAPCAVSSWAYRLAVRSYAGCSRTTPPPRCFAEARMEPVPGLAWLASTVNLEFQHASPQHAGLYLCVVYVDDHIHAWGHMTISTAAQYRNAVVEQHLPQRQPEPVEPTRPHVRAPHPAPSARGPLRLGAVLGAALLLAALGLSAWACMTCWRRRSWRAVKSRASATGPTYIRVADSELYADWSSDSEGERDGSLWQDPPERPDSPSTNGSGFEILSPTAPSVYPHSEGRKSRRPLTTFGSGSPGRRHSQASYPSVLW
substance,measurement,value
rabbit anti-sheep IgG on sheep red blood cells (IgG-coated red blood cells) (antibody),percent of infected cells forming rosettes,36%
